Assay results: patent US20230118307A1, “THERAPEUTIC USE OF LONG-ACTING CONJUGATE OF TRIPLE AGONIST HAVING ACTIVITIES TO ALL OF GLUCAGON/GLP-1/GIP RECEPTORS FOR LUNG DISEASE” (HANMI PHARM. CO., LTD., priority 2020, published 2023)
Positions of bridges follow the written chain, without caps; N, C: chain ends. Non-standard residues stand in square brackets, D forms with d. No end group written: not given here. *: point of attachment. Acetyl(2-(4-imidazolyl)) = O=C(Cc1c[nH]cn1)*; Aib = CC(C)(N)C(=O)O

B1: triple agonist of SEQ ID NO: 11 (peptide)
peptide: [Acetyl(2-(4-imidazolyl))]GEGTFTSDLSKYLDSRRQQLFVQWLKAGGPSSGAPPPSHG
B2: triple agonist of SEQ ID NO: 12 (peptide)
peptide: [Acetyl(2-(4-imidazolyl))]GEGTFISDLSKYMDEQAVQLFVEWLMAGGPSSGAPPPSHG
B3: triple agonist of SEQ ID NO: 88 (peptide)
peptide: [Acetyl(2-(4-imidazolyl))][Aib]QGTFTSDYSKYLDEKRQKEFVQWLLNTKC
modifications: bridge 16-20
B4: triple agonist of SEQ ID NO: 98 (peptide)
peptide: Y[Aib]QGTFTSDYSKALDEKAAKEFVNWLLDHHPSSGQPPPSC
modifications: bridge 16-20
B5: triple agonist of SEQ ID NO: 82 (peptide)
peptide: [Acetyl(2-(4-imidazolyl))][Aib]QGTFTSDYSKYLDEKRQKEFVQWLLDTC
modifications: bridge 16-20
B6: triple agonist of SEQ ID NO: 91 (peptide)
peptide: [Acetyl(2-(4-imidazolyl))][Aib]EGTFTSDYSIAMDEIHQKDFVDWLLAEKC
modifications: bridge 16-20
B7: triple agonist of SEQ ID NO: 93 (peptide)
peptide: [Acetyl(2-(4-imidazolyl))][Aib]QGTFTSDYSKYLDEKRQKEFVNWLLAQKC
modifications: bridge 16-20
B8: triple agonist of SEQ ID NO: 10 (peptide)
peptide: H[Aib]QGTFTSDVSKYLDGQAAQEFVAWLLAGGGPSSGAPPPSC
B9: triple agonist of SEQ ID NO: 97 (peptide)
peptide: Y[Aib]QGTFTSDYSKYLDEKRAKEFVQWLLDCHPSSGQPPPS
modifications: bridge 16-20
B10: triple agonist of SEQ ID NO: 2 (peptide)
peptide: H[Aib]QGTFTSDVSSYLDGQAQKEFIAWLVKGC
B11: triple agonist of SEQ ID NO: 83 (peptide)
peptide: [Acetyl(2-(4-imidazolyl))][Aib]EGTFTSDYSIAMDEIHQKDFVNWLLAQC
modifications: bridge 16-20
B12: triple agonist of SEQ ID NO: 13 (peptide)
peptide: [Acetyl(2-(4-imidazolyl))]GEGTFISDYSIQLDEIAVQDFVEWLLAQKPSSGAPPPSHG
B13: triple agonist of SEQ ID NO: 101 (peptide)
peptide: Y[Aib]QGTFTSDYSKALDEKAAKEFVNWLLDQHPSSGQPPPSC
modifications: bridge 16-20
B14: triple agonist of SEQ ID NO: 14 (peptide)
peptide: [Acetyl(2-(4-imidazolyl))]GQGTFTSDYSIQLDEIAVRDFVEWLKNGGPSSGAPPPSHG
B15: triple agonist of SEQ ID NO: 92 (peptide)
peptide: [Acetyl(2-(4-imidazolyl))][Aib]QGTFTSDYSIAMDEIHQKDFVNWLLAQKC
modifications: bridge 16-20
B16: triple agonist of SEQ ID NO: 9 (peptide)
peptide: H[Aib]QGTFTSDVSKYLDGQAAQEFVAWLLAGC
B17: triple agonist of SEQ ID NO: 99 (peptide)
peptide: Y[Aib]QGTFTSDYSKALDEKAAKDFVNWLLDHHPSSGQPPPSC
modifications: bridge 16-20
B18: triple agonist of SEQ ID NO: 86 (peptide)
peptide: [Acetyl(2-(4-imidazolyl))][Aib]QGTFTSDYSKYLDEKRQKEFVNWLLAQC
modifications: bridge 16-20
B19: triple agonist of SEQ ID NO: 95 (peptide)
peptide: Y[Aib]QGTFTSDYSKYLDEKRAKEFVQWLLCHHPSSGQPPPS
modifications: bridge 16-20
B20: triple agonist of SEQ ID NO: 84 (peptide)
peptide: [Acetyl(2-(4-imidazolyl))][Aib]EGTFTSDYSIAMDEIHQKDFVDWLLAEC
modifications: bridge 16-20
B21: triple agonist of SEQ ID NO: 100 (peptide)
peptide: Y[Aib]QGTFTSDYSKALDEKAAKEFVQWLLDQHPSSGQPPPSC
modifications: bridge 16-20
B22: triple agonist of SEQ ID NO: 102 (peptide)
peptide: Y[Aib]QGTFTSDYSKALDEKAAKDFVNWLLDQHPSSGQPPPSC
modifications: bridge 16-20
B23: triple agonist of SEQ ID NO: 96 (peptide)
peptide: Y[Aib]QGTFTSDYSKYLDEKRAKEFVQWLLDHCPSSGQPPPS
modifications: bridge 16-20
B24: triple agonist of SEQ ID NO: 16 (peptide)
peptide: [Acetyl(2-(4-imidazolyl))]GQGTFTSDLSKQMDSEAQQLFIEWLKNGGPSSGAPPPSHG
B25: triple agonist of SEQ ID NO: 90 (peptide)
peptide: [Acetyl(2-(4-imidazolyl))][Aib]EGTFTSDYSIAMDEIHQKDFVNWLLAQKC
modifications: bridge 16-20
B26: triple agonist of SEQ ID NO: 94 (peptide)
peptide: [Acetyl(2-(4-imidazolyl))][Aib]QGTFTSDYSIAMDEIHQKDFVNWLLNTKC
modifications: bridge 16-20
B27: triple agonist of SEQ ID NO: 85 (peptide)
peptide: [Acetyl(2-(4-imidazolyl))][Aib]QGTFTSDYSIAMDEIHQKDFVNWLLAQC
modifications: bridge 16-20
B28: triple agonist of SEQ ID NO: 89 (peptide)
peptide: [Acetyl(2-(4-imidazolyl))][Aib]QGTFTSDYSKYLDEKRQKEFVQWLLDTKC
modifications: bridge 16-20
B29: triple agonist of SEQ ID NO: 87 (peptide)
peptide: [Acetyl(2-(4-imidazolyl))][Aib]QGTFTSDYSIAMDEIHQKDFVNWLLNTC
modifications: bridge 16-20

target: human GLP-1 receptor (human, UniProt P43220 24-463); test: cell-based or functional assay

| Binder | In vitro Activity Compared to Native Peptide (%) vs. GLP-1 [%] |
| --- | --- |
| B1 | 1.4 |
| B2 | 0.4 |
| B3 | 9.6 |
| B4 | 28.1 |
| B5 | 9.5 |
| B6 | 31.9 |
| B7 | 5.7 |
| B8 | 46 |
| B9 | 10.5 |
| B10 | 5.9 |
| B11 | 47.3 |
| B12 | < 0.1 |
| B13 | 23.2 |
| B14 | 28 |
| B15 | 0.8 |
| B16 | 32.1 |
| B17 | 20.9 |
| B18 | 28.4 |
| B19 | 2.1 |
| B20 | 4.2 |
| B21 | 42.2 |
| B22 | 23.3 |
| B23 | 34.4 |
| B24 | 2.1 |
| B25 | 7.4 |
| B26 | 0.5 |
| B27 | 4.3 |
| B28 | 7.1 |
| B29 | 0.9 |

target: human GCG receptor (human, UniProt P47871 26-477); test: cell-based or functional assay
Sequence (P47871 26-477): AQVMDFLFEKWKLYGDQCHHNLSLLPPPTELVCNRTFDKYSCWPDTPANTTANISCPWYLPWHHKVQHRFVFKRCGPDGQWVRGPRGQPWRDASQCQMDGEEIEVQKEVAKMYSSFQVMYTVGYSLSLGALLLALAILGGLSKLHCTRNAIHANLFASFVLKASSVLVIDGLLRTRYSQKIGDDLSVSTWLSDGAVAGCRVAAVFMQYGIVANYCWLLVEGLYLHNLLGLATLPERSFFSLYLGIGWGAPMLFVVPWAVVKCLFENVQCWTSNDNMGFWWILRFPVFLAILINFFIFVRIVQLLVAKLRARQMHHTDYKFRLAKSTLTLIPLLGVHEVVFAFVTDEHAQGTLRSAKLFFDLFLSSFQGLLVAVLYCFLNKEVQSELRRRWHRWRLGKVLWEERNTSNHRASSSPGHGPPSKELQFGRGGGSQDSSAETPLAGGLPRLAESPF

| Binder | In vitro Activity Compared to Native Peptide (%) vs. Glucagon [%] |
| --- | --- |
| B1 | < 0.1 |
| B2 | < 0.1 |
| B3 | 0.3 |
| B4 | 8.2 |
| B5 | 1.1 |
| B6 | 16.8 |
| B7 | 0.3 |
| B8 | < 0.1 |
| B9 | 62.8 |
| B10 | < 0.1 |
| B11 | 1.3 |
| B12 | < 0.1 |
| B13 | 13.9 |
| B14 | < 0.1 |
| B15 | < 0.1 |
| B16 | 0.13 |
| B17 | 14.9 |
| B18 | 0.4 |
| B19 | 0.4 |
| B20 | < 0.1 |
| B21 | 12.7 |
| B22 | 29.5 |
| B23 | 195 |
| B24 | < 0.1 |
| B25 | < 0.1 |
| B26 | < 0.1 |
| B27 | < 0.1 |
| B28 | 0.7 |
| B29 | < 0.1 |

target: T1, human GIP receptor (human, UniProt P48546 22-466); test: cell-based or functional assay
T1 sequence (looked up): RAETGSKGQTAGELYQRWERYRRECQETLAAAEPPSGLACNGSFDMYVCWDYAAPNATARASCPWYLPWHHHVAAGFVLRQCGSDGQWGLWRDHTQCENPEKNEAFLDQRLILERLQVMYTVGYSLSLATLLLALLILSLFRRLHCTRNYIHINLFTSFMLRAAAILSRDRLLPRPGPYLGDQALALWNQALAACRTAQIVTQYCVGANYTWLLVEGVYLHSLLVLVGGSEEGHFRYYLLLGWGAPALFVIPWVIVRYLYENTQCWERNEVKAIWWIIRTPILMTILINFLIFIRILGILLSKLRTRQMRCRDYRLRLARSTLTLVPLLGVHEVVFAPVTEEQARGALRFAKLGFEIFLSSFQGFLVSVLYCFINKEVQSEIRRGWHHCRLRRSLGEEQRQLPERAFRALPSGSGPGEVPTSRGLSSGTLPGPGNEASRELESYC

| Binder | In vitro Activity Compared to Native Peptide (%) vs. GIP [%] |
| --- | --- |
| B1 | < 0.1 |
| B2 | < 0.1 |
| B3 | < 0.1 |
| B4 | 47.1 |
| B5 | < 0.1 |
| B6 | 0.3 |
| B7 | 0.7 |
| B8 | < 0.1 |
| B9 | 2.6 |
| B10 | < 0.1 |
| B11 | 0.4 |
| B12 | < 0.1 |
| B13 | 40.1 |
| B14 | < 0.1 |
| B15 | 0.4 |
| B16 | < 0.1 |
| B17 | 57.7 |
| B18 | 0.2 |
| B19 | < 0.1 |
| B20 | < 0.1 |
| B21 | 118 |
| B22 | 58 |
| B23 | 5.2 |
| B24 | < 0.1 |
| B25 | < 0.1 |
| B26 | < 0.1 |
| B27 | 0.3 |
| B28 | < 0.1 |
| B29 | < 0.1 |
